Laboratory results published in patent publication US20210155683A1.

Tests used:
[1] = target: human β-NGF (human) (UniProt P01138); test: ELISA, plate coated with 0.5 µg/mL human β-NGF; antibody at 1 µg/mL; duplicate well 2
[2] = target: human β-NGF (human) (UniProt P01138); test: ELISA, plate coated with human β-NGF, anti-human IgG-HRP detection, 4-parameter fit
[3] = target: human β-NGF (human) (UniProt P01138); test: ELISA, plate coated with 0.5 µg/mL human β-NGF; antibody 1 µg/mL diluted 1:243; duplicate well 2
[4] = target: human β-NGF (human) (UniProt P01138); test: ELISA, plate coated with 0.5 µg/mL human β-NGF; antibody 1 µg/mL diluted 1:27; duplicate well 2
[5] = target: human β-NGF (human) (UniProt P01138); test: ELISA, plate coated with 0.5 µg/mL human β-NGF; antibody 1 µg/mL diluted 1:81; duplicate well 1
[6] = target: human β-NGF (human) (UniProt P01138); test: ELISA, plate coated with 0.5 µg/mL human β-NGF; antibody 1 µg/mL diluted 1:9; duplicate well 2
[7] = target: human β-NGF (human) (UniProt P01138); test: ELISA, plate coated with 0.5 µg/mL human β-NGF; antibody 1 µg/mL diluted 1:81; duplicate well 2
[8] = target: human β-NGF (human) (UniProt P01138); test: ELISA, plate coated with 0.5 µg/mL human β-NGF; antibody 1 µg/mL diluted 1:729; duplicate well 1
[9] = target: human β-NGF (human) (UniProt P01138); test: ELISA, plate coated with 0.5 µg/mL human β-NGF; antibody at 1 µg/mL; duplicate well 1
[10] = target: human β-NGF (human) (UniProt P01138); test: ELISA, plate coated with 0.5 µg/mL human β-NGF; antibody 1 µg/mL diluted 1:3; duplicate well 1
[11] = target: NGF (as used in the TF-1 cell proliferation assays); test: cell-based or functional assay
[12] = target: human β-NGF (human) (UniProt P01138); test: ELISA, plate coated with 0.5 µg/mL human β-NGF; antibody 1 µg/mL diluted 1:3; duplicate well 2
[13] = target: human β-NGF (human) (UniProt P01138); test: ELISA, plate coated with 0.5 µg/mL human β-NGF; antibody 1 µg/mL diluted 1:243; duplicate well 1
[14] = target: human β-NGF (human) (UniProt P01138); test: ELISA, plate coated with 0.5 µg/mL human β-NGF; antibody 1 µg/mL diluted 1:27; duplicate well 1
[15] = target: human β-NGF (human) (UniProt P01138); test: ELISA, plate coated with 0.5 µg/mL human β-NGF; antibody 1 µg/mL diluted 1:9; duplicate well 1
[16] = target: human β-NGF (human) (UniProt P01138); test: ELISA, plate coated with 0.5 µg/mL human β-NGF; antibody 1 µg/mL diluted 1:729; duplicate well 2

Chain of human β-NGF (human) (P01138 122-241 limits assumed): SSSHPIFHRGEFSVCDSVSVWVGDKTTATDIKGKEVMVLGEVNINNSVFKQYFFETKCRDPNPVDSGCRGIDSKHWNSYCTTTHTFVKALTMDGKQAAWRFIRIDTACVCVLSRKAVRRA

- OD (450 nm) [1]: 2.71 OD (450 nm)
- EC50 [2]: 0.103 nM
- OD (450 nm) [3]: 0.609 OD (450 nm)
- OD (450 nm) [4]: 1.97 OD (450 nm)
- OD (450 nm) [5]: 1.18 OD (450 nm)
- OD (450 nm) [6]: 2.27 OD (450 nm)
- OD (450 nm) [7]: 1.27 OD (450 nm)
- OD (450 nm) [8]: 0.227 OD (450 nm)
- OD (450 nm) [9]: 2.77 OD (450 nm)
- OD (450 nm) [10]: 2.66 OD (450 nm)
- neutralizing EC50 to NGF (inhibition of NGF-induced TF-1 cell proliferation, CCK-8) [11]: 0.21 nM
- OD (450 nm) [12]: 2.55 OD (450 nm)
- OD (450 nm) [13]: 0.56 OD (450 nm)
- OD (450 nm) [14]: 2.17 OD (450 nm)
- OD (450 nm) [15]: 2.48 OD (450 nm)
- OD (450 nm) [16]: 0.245 OD (450 nm)
Substance: Pfizer antibody Tanezumab
